The target of data set [1] is She2p;She3p (Saccharomyces cerevisiae;Saccharomyces cerevisiae) (UniProt P36068+P38272). The data set can be described thus: EMSA. The following applies: EMSA: 20 mM HEPES pH 7.8, 200 mM NaCl, 2 mM MgCl2, 2 mM DTT, 4% glycerol, 30 or 100 ug/ml yeast tRNA, 5 nM RNA, 20 C; filter binding: 20 mM HEPES pH 7.4-7.5 (7.). (In general: Mobility shift assays separate free from complexed probe on a gel.)

Data set [2] deals with Full-length His-She3p (Saccharomyces cerevisiae) (UniProt P38272). The data set is described as follows: SPR; Biacore 3000, CM-5 chip, She3p amine-coupled, She2p flowed over, HNMD-buffer; steady state, Langmuir isotherm; duplicates. In general terms: In SPR one partner is held on a chip, and binding of the other changes the refractive index at the surface.
Full-length His-She3p (Saccharomyces cerevisiae), sequence (P38272 whole entry): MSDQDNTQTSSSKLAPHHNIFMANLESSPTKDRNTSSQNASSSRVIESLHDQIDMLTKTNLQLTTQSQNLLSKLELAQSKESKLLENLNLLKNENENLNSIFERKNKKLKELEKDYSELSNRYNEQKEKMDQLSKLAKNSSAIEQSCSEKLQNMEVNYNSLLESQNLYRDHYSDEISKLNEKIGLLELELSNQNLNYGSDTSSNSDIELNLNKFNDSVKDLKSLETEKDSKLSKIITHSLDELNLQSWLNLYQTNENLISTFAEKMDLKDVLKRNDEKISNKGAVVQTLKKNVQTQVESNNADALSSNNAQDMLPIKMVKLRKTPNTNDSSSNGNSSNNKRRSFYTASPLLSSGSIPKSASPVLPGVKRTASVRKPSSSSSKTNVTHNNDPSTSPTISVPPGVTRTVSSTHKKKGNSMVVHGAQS

pKd: −log10 of the molar value. Some results are limits rather than exact numbers.

She2p;She3p (Saccharomyces cerevisiae;Saccharomyces cerevisiae), sequence (P36068 whole entry, chain 1 of 2): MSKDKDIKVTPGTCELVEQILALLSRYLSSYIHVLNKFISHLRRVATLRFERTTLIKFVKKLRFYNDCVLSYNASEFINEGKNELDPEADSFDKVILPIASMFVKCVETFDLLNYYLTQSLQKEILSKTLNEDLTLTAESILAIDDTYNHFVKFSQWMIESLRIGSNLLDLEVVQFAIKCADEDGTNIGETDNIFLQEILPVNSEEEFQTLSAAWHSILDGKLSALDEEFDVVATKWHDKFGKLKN
She2p;She3p (Saccharomyces cerevisiae;Saccharomyces cerevisiae), sequence (P38272 whole entry, chain 2 of 2): as the sequence (P38272 whole entry) above

Substance HIV-1 TAR (length not stated) showed a pKd in data set [1] below 5.82. On to “She2p (ΔC) (from UniProt P36068 1-240) (domain or fragment)”, for which the pKd in data set [2] is 5.70.

In general, pKd refers to −log10 of the Kd, conventionally taken in molar units. A high value points to a low Kd.

(Values after article PMC3079584.)
